From patent US20150087046A1 (SPIBER TECHNOLOGIES, published 2015) come the findings set out here.

For test [1], the target named is biotinylated antigen sample (antigen recognised by scFv1, specific for Systemic Lupus Erythematosus). Briefly: microarray of spotted films, 10 nM biotinylated antigen, Alexa-647-streptavidin, spot intensity; reference: pure scFv1 control.
In test [2] the target is T1, albumin from human blood plasma (human, UniProt P02768 25-609).
T1 construct: Not purified: the albumin source was diluted human blood plasma
T1 sequence (P02768 25-609 limits assumed): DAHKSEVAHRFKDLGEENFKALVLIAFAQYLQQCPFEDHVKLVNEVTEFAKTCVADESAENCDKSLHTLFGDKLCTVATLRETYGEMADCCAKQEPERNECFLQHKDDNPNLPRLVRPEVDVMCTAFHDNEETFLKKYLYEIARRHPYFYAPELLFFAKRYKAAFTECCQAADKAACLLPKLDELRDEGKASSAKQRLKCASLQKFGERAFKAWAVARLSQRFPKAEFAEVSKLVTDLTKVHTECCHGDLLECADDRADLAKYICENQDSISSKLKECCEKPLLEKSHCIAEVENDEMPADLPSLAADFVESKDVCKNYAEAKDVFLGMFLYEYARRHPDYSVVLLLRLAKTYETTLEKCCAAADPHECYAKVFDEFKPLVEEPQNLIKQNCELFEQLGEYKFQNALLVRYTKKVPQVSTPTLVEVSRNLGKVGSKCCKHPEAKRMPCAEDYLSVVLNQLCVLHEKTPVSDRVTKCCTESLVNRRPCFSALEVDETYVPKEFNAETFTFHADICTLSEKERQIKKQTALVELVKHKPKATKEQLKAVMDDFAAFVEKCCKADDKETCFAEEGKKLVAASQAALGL
Briefly: film incubated with plasma, acid elution, non-reducing SDS-PAGE. Here is the method:
(§1) To evaluate the ability of ABD-NTCT films to bind albumin, human blood plasma was used as albumin source. Four films of ABD-NTCT and ABD-CT were pre-wetted with 150 μl of 1×PBS followed by incubation of 100 μl of human blood plasma (1:5 dilution) for 30 min at room temperature. After washing three times with 200 μl 1×PBS, bound albumin was eluted in 50 μl by lowering the pH to approximately 2.7 with elution buffer (i.e. 0.5 M acetic acid, 1 M urea, 100 mM NaCl), after which the eluted fractions were analyzed by non-reducing SDS-PAGE. Films of NTCT and CT were used as control material, and were treated in the same way.

The target in test [3] is T1, albumin from human blood plasma. Briefly: film incubated with human blood plasma (1:5), acid elution, non-reducing SDS-PAGE. Here is the method: Films of His₆-ABD-CT were casted in 96-well plates (Tissue culture plate, Suspension cells, 83.1835.500, Sarstedt) from 15 μl of 1 mg/ml soluble fusion protein per film. The films were then allowed to solidify over night (20° C., 35% relative humidity). The same procedure was followed for casting films of His₆-ABD-NTCT from 15 μl of 1 mg/ml protein solution.
as §1

B1: His6-scFv1-NTCT fusion protein (scFv)
chain: MGSSGHHHHHHMEVQLLESGGGLVQPGGSLRLSCAASGFTFSSYEMNWVRQAPGKGLEWVSGISGSGGFTYYADSVKGRFTISRDNSKNTLYLQMNSLRAEDTAMYYCAREGYQDAFDIWGQGTLVTVSSGGGGSGGGGSGGGGSQSVLTQPPSASGTPGQRVTISCTGSSSNIGAGYDVHWYQQLPGTAPKLLIYSNNQRPSGVPDRFSGSKSGTSASLAISGLRSEDEADYYCAAWDDSLSGPPWVFGGGTKLTVLGEQKLISEEDLSGSAAAGNSSHTTPWTNPGLAENFMNSFMQGLSSMPGFTASQLDDMSTIAQSMVQSIQSLAAQGRTSPNKLQALNMAFASSMAEIAASEEGGGSLSTKTSSIASAMSNAFLQTTGVVNQPFINEITQLVSMFAQAGMNDVSAGNSGIQGYGQSSASASAAASAASTVANSVSRLSSPSAVSRVSSAVSSLVSNGQVNMAALPNIISNISSSVSASAPGASGCEVIVQALLEVITALVQIVSSSSVGYINPSAVNQITNVVANAMAQVMG
In test [1], B1 displayed a fold increase of antigen recognition against the scFv1 control of 25 times.

B2: NTCT (control) film (other)
chain: HHHHHHMSHTTPWTNPGLAENFMNSFMQGLSSMPGFTASQLDDMSTIAQSMVQSIQSLAAQGRTSPNKLQALNMAFASSMAEIAASEEGGGSLSTKTSSIASAMSNAFLQTTGVVNQPFINEITQLVSMFAQAGMNDVSASASAGASAAASAGAGSGNSGIQGYGQSSASASAAASAASTVANSVSRLSSPSAVSRVSSAVSSLVSNGQVNMAALPNIISNISSSVSASAPGASGCEVIVQALLEVITALVQIVSSSSVGYINPSAVNQITNVVANAMAQVMG
notes: also called His6NT-CT; His6NTCT
B2: in test [2], the binding result is on record as “no binding (tested: human blood plasma (1:5 dilution))”.

B3: His6-ABD-NTCT fusion protein (other)
chain: MGSSGHHHHHHMLAEAKVLANRELDKYGVSDYYKNLINNAKTVEGVKALIDEILAALPGNSSHTTPWTNPGLAENFMNSFMQGLSSMPGFTASQLDDMSTIAQSMVQSIQSLAAQGRTSPNKLQALNMAFASSMAEIAASEEGGGSLSTKTSSIASAMSNAFLQTTGVVNQPFINEITQLVSMFAQAGMNDVSAGNSGIQGYGQSSASASAAASAASTVANSVSRLSSPSAVSRVSSAVSSLVSNGQVNMAALPNIISNISSSVSASAPGASGCEVIVQALLEVITALVQIVSSSSVGYINPSAVNQITNVVANAMAQVMG
notes: Tested as a solid film (polymer of the fusion protein) cast in 96-well plates from 15 ul of 1 mg/ml protein
As to B3, the binding result in test [3] is on record as “binds”.

B4: His6-ABD-CT fusion protein (other)
chain: MGHHHHHHMLAEAKVLANRELDKYGVSDYYKNLINNAKTVEGVKALIDEILAALPGNSGIQGYGQSSASASAAASAASTVANSVSRLSSPSAVSRVSSAVSSLVSNGQVNMAALPNIISNISSSVSASAPGASGCEVIVQALLEVITALVQIVSSSSVGYINPSAVNQITNVVANAMAQVMG
notes: as for B3
Regarding B4, the binding result in test [3] is given as “binds”.

B5: CT (control) film (other)
chain: SRLSSPSAVSRVSSAVSSLVSNGQVNMAALPNIISNISSSVSASAPGASGCEVIVQALLEVITALVQIVSSSSVGYINPSAVNQITNVVANAMAQVMG
B5: the binding result in test [2] is listed as “no binding (tested: human blood plasma (1:5 dilution))”.
